Data published in patent US20250018014A1, “METHOD FOR TREATING AND/OR PREVENTING REGNASE-1-RELATED DISEASE” (OSAKA UNIVERSITY, priority 2018, published 2025).
Like-named read-outs stand apart in the source and are kept apart here. Positions of bridges follow the written chain, without caps; N, C: chain ends. Non-standard residues stand in square brackets, D forms with d. *: point of attachment. NMeA = CN[C@@H](C)C(=O)O; Pyrrolidide = C1CCN(*)C1; dNMeA = CN[C@H](C)C(=O)O

How the values were obtained:
Experiment in all cases: cell-based or functional assay
[1] = molecular target: T1, C-terminal human Regnase-1 (amino acids 301 to 599) with N-terminal FLAG tag and C-terminal BirA recognition … (human, UniProt Q5D1E8 301-599)
T1 sequence: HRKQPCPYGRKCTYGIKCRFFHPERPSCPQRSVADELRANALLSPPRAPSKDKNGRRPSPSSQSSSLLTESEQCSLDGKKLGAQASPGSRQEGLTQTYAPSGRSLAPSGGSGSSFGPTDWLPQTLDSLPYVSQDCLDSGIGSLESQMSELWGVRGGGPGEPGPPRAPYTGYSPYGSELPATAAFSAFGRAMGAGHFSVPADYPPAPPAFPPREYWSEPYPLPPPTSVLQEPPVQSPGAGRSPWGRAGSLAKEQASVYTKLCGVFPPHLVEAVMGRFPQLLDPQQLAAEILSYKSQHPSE

[2] = molecular target: T2, full-length human Regnase-1 with a FLAG tag on the N-terminal side and a biotin ligase BirA recognition … (human, UniProt Q5D1E8 1-599, biotinylated at the BirA recognition sequence when required)
T2 sequence: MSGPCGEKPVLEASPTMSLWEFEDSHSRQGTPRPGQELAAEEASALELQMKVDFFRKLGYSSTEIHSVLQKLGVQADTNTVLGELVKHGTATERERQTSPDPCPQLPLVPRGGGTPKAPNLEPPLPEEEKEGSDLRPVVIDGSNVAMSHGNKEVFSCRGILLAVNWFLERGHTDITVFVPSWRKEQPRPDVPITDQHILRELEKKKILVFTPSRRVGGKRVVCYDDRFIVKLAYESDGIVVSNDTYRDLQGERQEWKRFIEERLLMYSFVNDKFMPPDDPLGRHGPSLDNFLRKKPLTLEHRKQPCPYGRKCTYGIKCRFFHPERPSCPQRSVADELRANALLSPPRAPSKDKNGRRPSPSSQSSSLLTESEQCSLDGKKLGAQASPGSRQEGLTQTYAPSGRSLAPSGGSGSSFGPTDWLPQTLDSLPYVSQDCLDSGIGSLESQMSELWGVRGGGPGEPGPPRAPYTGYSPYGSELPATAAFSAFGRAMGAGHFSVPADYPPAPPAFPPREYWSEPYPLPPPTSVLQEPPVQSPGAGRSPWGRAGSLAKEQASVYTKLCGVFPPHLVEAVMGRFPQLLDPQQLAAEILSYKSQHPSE

[3] = molecular target: T3, C-terminal domain-deleted human Regnase-1 (amino acids 1 to 546) with N-terminal FLAG tag and C-terminal BirA … (human, UniProt Q5D1E8 1-546)
T3 sequence: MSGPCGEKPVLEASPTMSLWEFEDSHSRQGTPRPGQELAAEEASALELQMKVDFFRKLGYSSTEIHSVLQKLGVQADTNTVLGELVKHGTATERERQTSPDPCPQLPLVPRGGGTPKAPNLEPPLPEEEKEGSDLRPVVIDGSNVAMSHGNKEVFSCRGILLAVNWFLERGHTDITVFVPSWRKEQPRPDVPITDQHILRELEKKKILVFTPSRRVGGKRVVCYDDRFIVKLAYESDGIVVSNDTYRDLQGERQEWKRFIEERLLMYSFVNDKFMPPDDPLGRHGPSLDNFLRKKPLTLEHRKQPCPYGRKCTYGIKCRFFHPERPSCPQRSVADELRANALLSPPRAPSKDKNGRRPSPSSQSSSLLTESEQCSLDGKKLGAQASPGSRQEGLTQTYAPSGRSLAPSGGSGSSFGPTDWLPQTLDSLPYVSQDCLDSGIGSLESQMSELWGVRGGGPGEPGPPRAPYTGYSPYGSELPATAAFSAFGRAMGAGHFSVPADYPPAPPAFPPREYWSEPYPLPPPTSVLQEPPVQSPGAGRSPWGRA

[4] = molecular target: T2, full-length human Regnase-1 with a FLAG …; remark: listed apart in the source
[5] = molecular target: T3, C-terminal domain-deleted human …; remark: listed apart in the source
[6] = molecular target: T1, C-terminal human Regnase-1 (amino acids …); remark: listed apart in the source
[7] = molecular target: T2, full-length human Regnase-1 with a FLAG …; remark: listed apart in the source
[8] = molecular target: T3, C-terminal domain-deleted human …; remark: listed apart in the source

Binder	50% inhibition concentration, Regnase-1 phosphorylation by IKKβ (AlphaScreen) [1] [µM]	50% inhibition concentration, Regnase-1 phosphorylation by IKKβ (AlphaScreen) [2] [µM]	50% inhibition concentration, Regnase-1 phosphorylation by IKKβ (AlphaScreen) [3] [µM]	50% inhibition concentration, Regnase-1 phosphorylation by IKKβ (AlphaScreen) [4] [µM]	50% inhibition concentration, Regnase-1 phosphorylation by TBK1 (AlphaScreen) [4] [µM]	50% inhibition concentration, Regnase-1 phosphorylation by IKKβ (AlphaScreen) [5] [µM]	50% inhibition concentration, Regnase-1 phosphorylation by TBK1 (AlphaScreen) [5] [µM]	50% inhibition concentration, Regnase-1 phosphorylation by TBK1 (AlphaScreen) [6] [µM]	50% inhibition concentration, Regnase-1 phosphorylation by TBK1 (AlphaScreen) [7] [µM]	50% inhibition concentration, Regnase-1 phosphorylation by TBK1 (AlphaScreen) [8] [µM]
XHSNAWYNIWD (HELM PEPTIDE1{[meA].H.S.N.A.W.Y.N.I.W.D.[C1CCN([*:1])C1]}$PEPTIDE1,PEPTIDE1,1:R1-11:R3$$$V2.0; SMILES CC[C@H](C)[C@@H]1NC(=O)[C@H](CC(N)=O)NC(=O)[C@H](Cc2ccc(O)cc2)NC(=O)[C@H](Cc2c[nH]c3ccccc23)NC(=O)[C@H](C)NC(=O)[C@H](CC(N)=O)NC(=O)[C@H](CO)NC(=O)[C@H](Cc2c[nH]cn2)NC(=O)[C@H](C)N(C)C(=O)C[C@@H](C(=O)N2CCCC2)NC(=O)[C@H](Cc2c[nH]c3ccccc23)NC1=O) [PP5]	31.3	23.6	20.4	23.6	24.2	20.4	19.1	40.4	24.2	19.1
XGYANSWYNIWD (HELM PEPTIDE1{[meA].G.Y.A.N.S.W.Y.N.I.W.D.[C1CCN([*:1])C1]}$PEPTIDE1,PEPTIDE1,1:R1-12:R3$$$V2.0; SMILES CC[C@H](C)[C@@H]1NC(=O)[C@H](CC(N)=O)NC(=O)[C@H](Cc2ccc(O)cc2)NC(=O)[C@H](Cc2c[nH]c3ccccc23)NC(=O)[C@H](CO)NC(=O)[C@H](CC(N)=O)NC(=O)[C@H](C)NC(=O)[C@H](Cc2ccc(O)cc2)NC(=O)CNC(=O)[C@H](C)N(C)C(=O)C[C@@H](C(=O)N2CCCC2)NC(=O)[C@H](Cc2c[nH]c3ccccc23)NC1=O) [PP2]	18.5	16.6	14	16.6	21.7	14	17.6	22.4	21.7	17.6
XTSWYKVNWGQD (HELM PEPTIDE1{[meA].T.S.W.Y.K.V.N.W.G.Q.D.[C1CCN([*:1])C1]}$PEPTIDE1,PEPTIDE1,1:R1-12:R3$$$V2.0; SMILES CC(C)[C@@H]1NC(=O)[C@H](CCCCN)NC(=O)[C@H](Cc2ccc(O)cc2)NC(=O)[C@H](Cc2c[nH]c3ccccc23)NC(=O)[C@H](CO)NC(=O)[C@H]([C@@H](C)O)NC(=O)[C@H](C)N(C)C(=O)C[C@@H](C(=O)N2CCCC2)NC(=O)[C@H](CCC(N)=O)NC(=O)CNC(=O)[C@H](Cc2c[nH]c3ccccc23)NC(=O)[C@H](CC(N)=O)NC1=O) [PP1]	> 62.1	28.1	> 62.1	28.1	54.5	> 62.1	> 62.1	> 62.1	54.5	> 62.1
XPNSSWFKIWD (HELM PEPTIDE1{[C[C@H](C(=O)[*:2])N(C)[*:1]].P.N.S.S.W.F.K.I.W.D.[C1CCN([*:1])C1]}$PEPTIDE1,PEPTIDE1,1:R1-11:R3$$$V2.0; SMILES CC[C@H](C)[C@@H]1NC(=O)[C@H](CCCCN)NC(=O)[C@H](Cc2ccccc2)NC(=O)[C@H](Cc2c[nH]c3ccccc23)NC(=O)[C@H](CO)NC(=O)[C@H](CO)NC(=O)[C@H](CC(N)=O)NC(=O)[C@@H]2CCCN2C(=O)[C@@H](C)N(C)C(=O)C[C@@H](C(=O)N2CCCC2)NC(=O)[C@H](Cc2c[nH]c3ccccc23)NC1=O) [PP6]	17.5	17	20.3	17	13.1	20.3	14.5	16.8	13.1	14.5
[dNMeA]KHASAWYRIWD-Pyrrolidide (lactam N-12) [PP3]	6.8	4.6	8.3	4.6	3.9	8.3	5.7	7.1	3.9	5.7
[NMeA]YIWDFFGDLD-Pyrrolidide (lactam N-11) [PP4]	12.8	19.5	8.3	19.5	61.9	8.3	44.9	35.9	61.9	44.9
